In publication PMC4933900, “Defined enzyme cocktail from the anaerobic fungus Orpinomyces sp. strain C1A effectively releases sugars from pretreated corn stover and switchgrass” (Scientific Reports, 2016):
Each block holds one molecule with its values, some of them ahead of it.

Experiments:
EG5 = molecular target: T1, EG5 (Pecoramyces ruminantium, UniProt A0A1B1JH60); experiment: endoglucanase assay, CellG3 kit, 2-chloro-4-nitrophenol release; format: biochemical; details: printed BDL (below detection limit 500 nM); Lineweaver-Burk extrapolation 0.000003999 mM
T1 construct: whole CDS (nt 1-1251 of transcript; protein length 417) cloned; codon-optimised synthetic gene in pET28a(+) NdeI/XhoI, E. coli, purified
From the text: endoglucanase assay, CellG3 kit, 2-chloro-4-nitrophenol release on EG5

[1] = substrate: O=[N+]([O-])c1ccc(O[C@@H]2O[C@H](CO)[C@@H](O[C@@H]3O[C@H](CO)[C@@H](O)[C@H](O)[C@H]3O)[C@H](O)[C@H]2O)cc1; experiment: cellobiohydrolase assay, p-nitrophenol release; format: biochemical, Pecoramyces ruminantium; details: 0.1 M sodium acetate buffer, 15 min; pH and temperature of kinetics not stated
purified protein = substrate: O=[N+]([O-])c1ccc(O[C@@H]2O[C@H](CO)[C@@H](O)[C@H](O)[C@H]2O)cc1; experiment: purified protein; details: 0.1 M sodium acetate buffer, 15 min; pH and temperature of kinetics not stated
[2] = substrate: O=[N+]([O-])c1ccc(O[C@@H]2O[C@H](CO)[C@@H](O[C@@H]3O[C@H](CO)[C@@H](O[C@@H]4O[C@@H]5COC(c6ccccc6)O[C@H]5[C@H](O)[C@H]4O)[C@H](O)[C@H]3O)[C@H](O)[C@H]2O)c(Cl)c1; experiment: endoglucanase assay, CellG3 kit, 2-chloro-4-nitrophenol release; format: biochemical, Pecoramyces ruminantium; details: pH and temperature of kinetics not stated
From the text: endoglucanase assay, CellG3 kit, 2-chloro-4-nitrophenol release on Cel48

[3] = substrate: O=[N+]([O-])c1ccc(O[C@@H]2OC[C@@H](O)[C@H](O)[C@H]2O)cc1; experiment: beta-xylosidase assay, p-nitrophenol release; format: biochemical, Pecoramyces ruminantium; details: 0.1 M sodium acetate buffer, 15 min; pH and temperature of kinetics not stated

Km (EG5): < 0.5 µM
Molecule: O=[N+]([O-])c1ccc(O[C@@H]2O[C@H](CO)[C@@H](O[C@@H]3O[C@H](CO)[C@@H](O[C@@H]4O[C@@H]5COC(c6ccccc6)O[C@H]5[C@H](O)[C@H]4O)[C@H](O)[C@H]3O)[C@H](O)[C@H]2O)c(Cl)c1 (some centres unmarked) [CellG3]

B1: Cel6A (Pecoramyces ruminantium) (protein)
chain: PKSSGGSTTTPVNPGDVDATPGDQLTLSGNPFSGVEFYINPYYVAEVDGAIAQMTDSSLKAKAEKMKTYSNAIWLDTIKNMNSWLESNLKGALAQQTGSKKVLTVFVVYDLPGRDCHALASNGELLANSSDAQRYKTEYIDVIEKHLKTYKSQPVALIVEPDSLANLVTNLESTPACRDSESYYLDGHAYLIKKLGVLPHVAMYLDIGHAFWLGWDDNREKAGKVYAKVIQSGSPGKVRGFTDNVSNYTPWEDPTLSRGPDTEWNPCPDEKRYLEAMHKDFKAAGISSVYFVSDTSRNGHKTDRKHPGEWCNQTGVGIGARPQASPISGMDYLDAFYWIKPLGESDGTSDESAVRFDGYCGHETAMKPAPEAGQWFQKHFEQGLENANPPL
notes: whole CDS (nt 2-1177 of transcript; protein length 391) cloned; codon-optimised synthetic gene in pET28a(+) NdeI/XhoI, E. coli, purified
Km [1]: 228 µM
Vmax [1]: 3.27 µmol/min/mg

B2: EG5 (Pecoramyces ruminantium) (protein)
chain: TLLGLAIIGTKAMRNISSKELVKELTIGWSLGNTLDATCFETLNYAKDQTASETCWGNVKTTQELYYKLNDLGFNTFRIPTTWSGHFGDGPDYKISEAWMKRVHEIVDYALNADGYAILNIHHETWNHAFQKNLESAKKILVAIWKQIAAEFADYDEHLIFEGMNEPRKVGDAAEWNGGDYEGWNFVNEMNDLFVKTIRATGGNNALRHLMIPTYAACVNDGAINNFRFPSGDDKVIVSLHSYSPYNFALNNGAGAISNFNDGSEIDWVMNTINSSFISKGIPVIIGEFGAMNRNNEADREKWAEYYIKKATSLGIPCVIWDNGYFEGEGERFGLIDRKSLNVVYPRLVNGLMKGLGDKKPKTTKVRTTTTTTIQVQPTNNNDCFSTKLGYDCCNGCEVFYTDNDGKWGVENGNWCG
Km (purified protein): 84000 µM
Vmax (purified protein): 0.45 µmol/min/mg

B3: Cel48 (Pecoramyces ruminantium) (protein)
chain: MPSIRTALTLLGASAVIAAPTKRANDAYAQRVIDTYNAVTGNGSYRSDYFSPENVPYHSVETMMVEAPDQGHESVSETYSFWVWLEAINGKMTGNYDGVNTAWSYLEKHIIPDSKNQPGMSRYNSSSPATYAPEDDDITNYPSKLIFQDGLVGQDPIAAELQQAYGTWDIYAMHWIIDGDNWYGYGQQGDGTTKPSFINTFQRGPSESAWKTVPHPCWEEFKWGGRNGFLDLFTVDNSYAKQWRYTAAPDADARAIQAAYFAYIWAKEDGQNLSSLAGKAAKLGDYLRYAHYDKYFKKIGNCIGYQQCQAGSGKNSAHYLISWYFSWGGGLQGDWSWRIGSSHTHTGYQNPLAAWVLSTESAFKPKGSTAVKDWATSLDRQLELFRWLQAAEGCIAGGATNSWQGHYAQPPSDITSFYGMYYDWQPVYHDPPSNNWTGMQGWGMERVCSLYFLSGNEKAGKVCQDWAKWVKNNVRVNGSEVVHATNFSWSGNPDEWKPANFNKSGLNASLHGTVSTEGIDIGSLASIIKGLMWVSMKDGDQEGIDLAVQVMDAIEQYRDDHGYGVEEAREDYAKFNEEVYIPSGWTGKNAQGANIRNGVKFIDIRPKYKQDPDWPQIENFLNGGEAPRFTYHRFWAQTEIAVANGLISIYGLSDGSGVVPTKPGSCAAAIKAQGYKCCSANCEVVYTDADGDWGVENDEWCGCGGGEPECPAAITNQGYPCCSTCGTVYYTDGDGDWGVENGDWCGMPTDC
notes: whole CDS (nt 87-2342 of transcript; protein length 751) cloned; codon-optimised synthetic gene in pET28a(+) NdeI/XhoI, E. coli, purified
Km [1]: 8980 µM
Vmax [1]: 0.357 µmol/min/mg
Km [2]: 30100 µM
Vmax [2]: 0.048 µmol/min/mg

B4: XYL11 (Pecoramyces ruminantium) (protein)
chain: GSGTSGTADFPYAKVYIGNQQNQPSYQPTTTRNNSQPTSPATGGSSGEICSASGHSGESTKVTSNKVGSINGIGYELWADSGNNSATFYSDGSFSCTFQNAKDYLCRSGLSFDSTKTHSQIGHLYADFKLVKQGISNVDYSYVGIYGWTRSPLVEFYIVDNWLSQYRPGDWVGNKKHGDFTIDGAQYTVYENTRTGPSIDGNTQFKQYFSIRKTARDCGTIDITAHFQQWEKLGMTMGKMHEAKVLGEAGSNGSGTSGTADFPYAKVYTGS
Km (purified protein): 216 µM
Vmax (purified protein): 0.28 µmol/min/mg

B5: BGL1 (Pecoramyces ruminantium) (protein)
chain: IVKPAADAAADVASDAEVVASDEENPLDNGEDSADDTPKGKLPSDFKWGAATAAYQVEGAWNEEGRGESVWDHFTHLYPKNVESGDRSNKDSTNGNVACDSYHKFDEDIKMMKIMNANHYRFSISWSRLFPDGQAKKVDGEWNVNEAGAQYYDMVIDTLLDNDIIPLATLYHWDLPYALHEKYGGWLDYHSQFDFAKYAEFCFERYGDRVKGWITINEPWVNCVAGYKNGPGKAPYRCTGEAPRKLANDTTGLDLEGGCSYEIGPSQYTKDSEVLPANRPPQKLEDVWCSHNILLGHAQAVKVYREKFQKEQKGLIGITIDGEAQIPWEEPGMSEEEYENNKKYANLAAEFRIGWYSDPVMFGDYPESVKQRNGKDMPVFTDEEKKLLKGSSSDFLGWNTYTSHWAAQVKNEDGSYVEPPTDEEASYDNSKRDMWDDNCKGRGDGWTCIPPTLGSQAGSSWNTKYGPTIRVGLNWFSKRYEGIIKNGIIITENGCAQPNYKVSRANDQVTLDYWKSIGKEEFADTYDEDIIEDESDLEGTLIHDTYRIDWYKQYLENLRLAYVEDGVDVRGYMAWSLVDNFEWENGYETRFGMTYIDFYNDKDLKRVPKDSLTFLGQWYLDNVEQE
Km (purified protein): 164 µM
Vmax (purified protein): 5.41 µmol/min/mg

B6: BGL3 (Pecoramyces ruminantium) (protein)
chain: TWEEADAKAREWCSDLTNEEKIALITGRENMTGVCVGSIDPIERKGFKGLCLQDGPAGVRFAKGTATSWQASINTAATFDRTLLRKVGEAQGNEFYQRGINVALAPSMGIQRAPAAGRIFESYGEDPFYVGQCGLEVLKGIQSQGVIANAKHYIANDQENNRGASTSNVPEQALWEVYMEPFYRTVVEGEAGTVMASYNAINGTYSTQNKRLLTDYLKGKLGFKGFVMSDWWAIFDVEKSFGNGTDMNMPGGKYWGPDYVGDSFWGEHIQECIDNGVFPQERLDDAVLRIIRTLYKLDQMDDYPEVNLYVDTNTKENAALNRKVGADSNVLLKNADNILPIKKSKKVKKIAVIGKDSMPPTLCEDMKCANGTLPLGWGSGTTDFKYVVDPLSAITKRAKKSKISVVSYGEDDAKKAAKVAKKADVAIVFVQADSGEEYITVEGNAGDRLNLDLWHGGNELIEAVAAVNKNTIVVIHAPGPVNVPFLDKVKGIIFAGLPGQETGNAITDVLFGDVNPSGHLPYTWAPREDYPTDVKYEPEYPDGGEKMTVYDYNEGLFVGYRWFDKKEIEPTFAFGYGLSYTTFEFSDLEATMEDDGLYVSLTVTNTGKVAGAAVPMIFLSFPESVKDYPIRLFKGFDKVMLKAGESKETTIFIDAHGLSYFDVEKMEYVRPKDGEFTVYAGSNARDLPLNVKVLANGDEI
notes: about residues 22-721; pET28a(+) NdeI/XhoI, codon-optimised, E. coli, purified
Km (purified protein): 275 µM
Vmax (purified protein): 1.55 µmol/min/mg
Km [3]: 50600 µM
Vmax [3]: 0.068 µmol/min/mg
